Experimental data from PMC8489136, “LncRNA MALAT1 was regulated by HPV16 E7 independently of pRB in cervical cancer cells”.

B1: MALAT1 promoter probe2 (dsDNA)
DNA 1: AGCTGCCACCCCGCCCCCATGCCAT
DNA 2: ATGGCATGGGGGCGGGGTGGCAGCT
modifications: 5'-biotin
B2: MALAT1 promoter probe1 (dsDNA)
DNA 1: CAGGCGTTAGGGCGGGGCGCGCGTGC
DNA 2: GCACGCGCGCCCCGCCCTAACGCCTG
modifications: 5'-biotin

Biological target: HPV16 E7 (His-E7) (Human papillomavirus type 16, UniProt P03129 1-98)
Assay: EMSA; inhibited by excess unlabeled probe; EMSA buffer, salt, pH and temperature not given; UV crosslinking: 20 min incubation in binding buffer (composition not given), 254 nm 30 min on ice
Details: protein: recombinant; tags: His; label: biotin; blunt

Chain of HPV16 E7 (His-E7) (P03129 whole entry): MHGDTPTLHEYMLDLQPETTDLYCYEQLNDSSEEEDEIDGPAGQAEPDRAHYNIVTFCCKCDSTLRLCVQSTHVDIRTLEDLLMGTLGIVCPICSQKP

| Binder | binding result |
| --- | --- |
| B1 | binds |
| B2 | binds |
